{"source": "the supplement of paper PMC10567573", "parents": {"B1": {"name": "KCNA4 (parent)", "chain": "YQSGGRLKRPVNVPFDIFTEEVKF"}}, "data": [{"variants_of": "B1", "assay": "protein stability index of a GFP-peptide fusion (GPS, HEK-293T) (PSI 1-6); higher = more stable", "settings": "c terminus: a fixed tail appended", "values": [{"variant": "YQSGGRLKRPVNHPFDIFTEEVKF", "note": "[V13H]", "protein stability index": 1.91}, {"variant": "YQSGGRLKRPVNNPFDIFTEEVKF", "note": "[V13N]", "protein stability index": 1.2}, {"variant": "YQSGGRLKRPVNLPFDIFTEEVKF", "note": "[V13L]", "protein stability index": 1.78}, {"variant": "YQSGGRLKRPVNVPFDIFTETVKF", "note": "[E21T]", "protein stability index": 1.81}, {"variant": "YQSGGRLKRPVNVPFDIFTEDVKF", "note": "[E21D]", "protein stability index": 2.37}, {"variant": "YQSGGRLKRPVNVPFDIFTEPVKF", "note": "[E21P]", "protein stability index": 2.13}, {"variant": "YQSGGRLKRPVNVPFDIFTEMVKF", "note": "[E21M]", "protein stability index": 1.06}, {"variant": "YQSGGRLKRPVNVPFDIFTEIVKF", "note": "[E21I]", "protein stability index": 2.24}, {"variant": "YQSGGRLKRPVNVPFDIFTEAVKF", "note": "[E21A]", "protein stability index": 1.89}, {"variant": "YQSGGRLKRPVNVPFDIFTEKVKF", "note": "[E21K]", "protein stability index": 1.17}, {"variant": "YQSGGRLKRPVNVPFDIFTENVKF", "note": "[E21N]", "protein stability index": 2.63}, {"variant": "YQSGGRLKRPVNVPFDIFTEGVKF", "note": "[E21G]", "protein stability index": 2.36}, {"variant": "YQSGGRLKRPVNVPFDIFTEHVKF", "note": "[E21H]", "protein stability index": 1.77}, {"variant": "YQSGGRLKRPVNVPFDIFTESVKF", "note": "[E21S]", "protein stability index": 1.24}, {"variant": "YQSGGRLKRPVNVPFDIFTEVVKF", "note": "[E21V]", "protein stability index": 1.81}, {"variant": "YQSGGRLKRPVNVPFDIFTEFVKF", "note": "[E21F]", "protein stability index": 1.55}, {"variant": "YQSGGRLKRPVNVPFDIFTECVKF", "note": "[E21C]", "protein stability index": 1.7}, {"variant": "YQSGGRLKRPVNVPFDIFTEYVKF", "note": "[E21Y]", "protein stability index": 2.61}, {"variant": "YQSGGRLKRPVTVPFDIFTEEVKF", "note": "[N12T]", "protein stability index": 2.07}, {"variant": "YQSGGRLKRPVDVPFDIFTEEVKF", "note": "[N12D]", "protein stability index": 2.38}, {"variant": "YQSGGRLKRPVHVPFDIFTEEVKF", "note": "[N12H]", "protein stability index": 1.91}, {"variant": "YQSGGRLKRPVCVPFDIFTEEVKF", "note": "[N12C]", "protein stability index": 1.8}, {"variant": "YQSGGRLKRPVPVPFDIFTEEVKF", "note": "[N12P]", "protein stability index": 1.55}, {"variant": "YQSGGRLKRPVAVPFDIFTEEVKF", "note": "[N12A]", "protein stability index": 1.65}, {"variant": "YQSGGRLKRPVYVPFDIFTEEVKF", "note": "[N12Y]", "protein stability index": 1.55}, {"variant": "YQSGGRLKRPVIVPFDIFTEEVKF", "note": "[N12I]", "protein stability index": 1.44}, {"variant": "YQSGGRLKRPVEVPFDIFTEEVKF", "note": "[N12E]", "protein stability index": 1.22}, {"variant": "YQSGGRLKRPVFVPFDIFTEEVKF", "note": "[N12F]", "protein stability index": 2.5}, {"variant": "YQSGGRLKRPVMVPFDIFTEEVKF", "note": "[N12M]", "protein stability index": 2.13}, {"variant": "YQSGGRLKRPVSVPFDIFTEEVKF", "note": "[N12S]", "protein stability index": 2.96}, {"variant": "YQSGGRLKRPVVVPFDIFTEEVKF", "note": "[N12V]", "protein stability index": 1.54}, {"variant": "YQSGGRLKRPVKVPFDIFTEEVKF", "note": "[N12K]", "protein stability index": 3.14}, {"variant": "YQSGGRLKRPVLVPFDIFTEEVKF", "note": "[N12L]", "protein stability index": 2.43}, {"variant": "YQSGGRLKRPVNVPFDEFTEEVKF", "note": "[I17E]", "protein stability index": 2.15}, {"variant": "YQSGGRLKRPVNVPFDVFTEEVKF", "note": "[I17V]", "protein stability index": 1.28}, {"variant": "YQSGGRLKRPVNVPFDTFTEEVKF", "note": "[I17T]", "protein stability index": 2.89}, {"variant": "YQSGGRLKRPVNVPFDQFTEEVKF", "note": "[I17Q]", "protein stability index": 1.72}, {"variant": "YQSGGRLKRPVNVPFDPFTEEVKF", "note": "[I17P]", "protein stability index": 1.85}, {"variant": "YQSGGRLKRPVNVPFDFFTEEVKF", "note": "[I17F]", "protein stability index": 2.25}, {"variant": "YQSGGRLKRPVNVPFDGFTEEVKF", "note": "[I17G]", "protein stability index": 1.91}, {"variant": "YQSGGRLKRPVNVPFDWFTEEVKF", "note": "[I17W]", "protein stability index": 2.99}, {"variant": "YQSGGRLKRPVNVPFDLFTEEVKF", "note": "[I17L]", "protein stability index": 2.36}, {"variant": "YQSGGRLKRPVNVPFDDFTEEVKF", "note": "[I17D]", "protein stability index": 2.83}, {"variant": "YQSGGRLKRPVNVPFDAFTEEVKF", "note": "[I17A]", "protein stability index": 1.64}, {"variant": "YQSGGRLKRPVNVPFDCFTEEVKF", "note": "[I17C]", "protein stability index": 3.62}, {"variant": "YQSGGRLKRPVNVPFDMFTEEVKF", "note": "[I17M]", "protein stability index": 1.91}, {"variant": "YQSGGRLKRPVNVPFDKFTEEVKF", "note": "[I17K]", "protein stability index": 2.04}, {"variant": "YQSGGRLKRPVNVPFDHFTEEVKF", "note": "[I17H]", "protein stability index": 1.98}, {"variant": "YQSGGRLKRPVNVPFDYFTEEVKF", "note": "[I17Y]", "protein stability index": 1.99}, {"variant": "YQSGGRLKRPVNVPFDIFVEEVKF", "note": "[T19V]", "protein stability index": 1.96}, {"variant": "YQSGGRLKRPVNVPFDIFDEEVKF", "note": "[T19D]", "protein stability index": 2.38}, {"variant": "YQSGGRLKRPVNVPFDIFFEEVKF", "note": "[T19F]", "protein stability index": 2.1}, {"variant": "YQSGGRLKRPVNVPFDIFQEEVKF", "note": "[T19Q]", "protein stability index": 1.42}, {"variant": "YQSGGRLKRPVNVPFDIFYEEVKF", "note": "[T19Y]", "protein stability index": 2.16}, {"variant": "YQSGGRLKRPVNVPFDIFCEEVKF", "note": "[T19C]", "protein stability index": 1.46}, {"variant": "YQSGGRLKRPVNVPFDIFEEEVKF", "note": "[T19E]", "protein stability index": 1.92}, {"variant": "YQSGGRLKRPVNVPFDIFKEEVKF", "note": "[T19K]", "protein stability index": 2.66}, {"variant": "YQSGGRLKRPVNVPFDIFPEEVKF", "note": "[T19P]", "protein stability index": 1.53}, {"variant": "YQSGGRLKRPVNVPFDIFGEEVKF", "note": "[T19G]", "protein stability index": 1.94}, {"variant": "YQSGGRLKRPVNVPFDIFNEEVKF", "note": "[T19N]", "protein stability index": 2.33}, {"variant": "YQSGGRLKRPVNVPFDIFIEEVKF", "note": "[T19I]", "protein stability index": 1.72}, {"variant": "YQSGGRLKRPVNVPFDIFSEEVKF", "note": "[T19S]", "protein stability index": 2.09}, {"variant": "YQSGGRLKRPVNVPFDIFWEEVKF", "note": "[T19W]", "protein stability index": 1.41}, {"variant": "YQSGGRLKRPVNVPFDIFREEVKF", "note": "[T19R]", "protein stability index": 1.2}, {"variant": "YQSGGRLKRPVNVPFDIFHEEVKF", "note": "[T19H]", "protein stability index": 2.83}, {"variant": "YQSGGRLKRPVNVPFDIFTEEVLF", "note": "[K23L]", "protein stability index": 2.53}, {"variant": "YQSGGRLKRPVNVPFDIFTEEVPF", "note": "[K23P]", "protein stability index": 1.44}, {"variant": "YQSGGRLKRPVNVPFDIFTEEVFF", "note": "[K23F]", "protein stability index": 2.99}, {"variant": "YQSGGRLKRPVNVPFDIFTEEVIF", "note": "[K23I]", "protein stability index": 2.65}, {"variant": "YQSGGRLKRPVNVPFDIFTEEVDF", "note": "[K23D]", "protein stability index": 1.82}, {"variant": "YQSGGRLKRPVNVPFDIFTEEVHF", "note": "[K23H]", "protein stability index": 1.71}, {"variant": "YQSGGRLKRPVNVPFDIFTEEVNF", "note": "[K23N]", "protein stability index": 2.3}, {"variant": "YQSGGRLKRPVNVPFDIFTEEVCF", "note": "[K23C]", "protein stability index": 2.33}, {"variant": "YQSGGRLKRPVNVPFDIFTEEVQF", "note": "[K23Q]", "protein stability index": 2.06}, {"variant": "YQSGGRLKRPVNVPFDIFTEEVEF", "note": "[K23E]", "protein stability index": 1.05}, {"variant": "YQSGGRLKRPVNVPFDIFTEEVMF", "note": "[K23M]", "protein stability index": 2.17}, {"variant": "YQSGGRLKRPVNVPFDIFTEEVAF", "note": "[K23A]", "protein stability index": 1.35}, {"variant": "YQSGGRLKRPVNVPFDIRTEEVKF", "note": "[F18R]", "protein stability index": 1.93}, {"variant": "YQSGGRLKRPVNVPFDITTEEVKF", "note": "[F18T]", "protein stability index": 2.26}, {"variant": "YQSGGRLKRPVNVPFDIQTEEVKF", "note": "[F18Q]", "protein stability index": 2.65}, {"variant": "YQSGGRLKRPVNVPFDIMTEEVKF", "note": "[F18M]", "protein stability index": 2.02}, {"variant": "YQSGGRLKRPVNVPFDISTEEVKF", "note": "[F18S]", "protein stability index": 2.43}, {"variant": "YQSGGRLKRPVNVPFDIGTEEVKF", "note": "[F18G]", "protein stability index": 2.29}, {"variant": "YQSGGRLKRPVNVPFDIITEEVKF", "note": "[F18I]", "protein stability index": 1.97}, {"variant": "YQSGGRLKRPVNVPFDIHTEEVKF", "note": "[F18H]", "protein stability index": 2.15}, {"variant": "YQSGGRLKRPVNVPFDIATEEVKF", "note": "[F18A]", "protein stability index": 2.28}, {"variant": "YQSGGRLKRPVNVPFDINTEEVKF", "note": "[F18N]", "protein stability index": 2.1}, {"variant": "YQSGGRLKRPVNVPFDILTEEVKF", "note": "[F18L]", "protein stability index": 2.5}, {"variant": "YQSGGRLKRPVNVPFDIETEEVKF", "note": "[F18E]", "protein stability index": 1.81}, {"variant": "YQSGGRLKRPVNVPFDIKTEEVKF", "note": "[F18K]", "protein stability index": 1.84}, {"variant": "YQSGGRLKRPVNVPFDIDTEEVKF", "note": "[F18D]", "protein stability index": 2.01}, {"variant": "YQSGGRLKRPVNVPFDIVTEEVKF", "note": "[F18V]", "protein stability index": 1.67}, {"variant": "YQSGGRLKRPVNVPFDICTEEVKF", "note": "[F18C]", "protein stability index": 1.57}, {"variant": "YQSGGRLKRPVNVPFDIPTEEVKF", "note": "[F18P]", "protein stability index": 2.44}]}]}
